The labels stand for the following.
B1: WDFY2 (parent)
chain: FWNFKQMWDSKKIGLRQHHCRKCG
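Note: lentivirally expressed fusions sorted by FACS into six bins by GFP to DsRed ratio, PSI derived from sequencing read proportions per bin multiplied by bin number.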

The series covers variants of B1. The experiment in a line: protein stability index of a GFP-peptide fusion (GPS, HEK-293T) (PSI 1-6); higher = more stable. Conditions: c terminus: a fixed tail appended.
On to FWNFKQMWDSKKWGLRQHHCRKCG, for which the protein stability index was 1.67.
Under FWNFKQMWDSKKKGLRQHHCRKCG stands 1.99; under FWNFKQMWDSKKQGLRQHHCRKCG, 1.73.
The figure for FWNFKQMWDSKKTGLRQHHCRKCG is 1.66; for FWNFKQMWDSKKVGLRQHHCRKCG it is 2.02.
In the case of FWNFKQMWDSKKPGLRQHHCRKCG, the protein stability index was 1.86.
The figure for FWNFKQMWDSKKNGLRQHHCRKCG is 2.42.
Under FWNFKQMWDSKKSGLRQHHCRKCG stands 2.54; under FWNFKQMWDSKKRGLRQHHCRKCG, 2.01; under FWNFKQMWDSKKYGLRQHHCRKCG, 2.25.
Under FWNFKQMWDSKKMGLRQHHCRKCG stands 2.29; under FWNFKQMWDSKKISLRQHHCRKCG, 3.27; under FWNFKQMWDSKKIFLRQHHCRKCG, 1.93.
FWNFKQMWDSKKIYLRQHHCRKCG: the protein stability index stood at 2.53.
The figure for FWNFKQMWDSKKIRLRQHHCRKCG is 1.9; for FWNFKQMWDSKKIPLRQHHCRKCG it is 1.46; for FWNFKQMWDSKKIQLRQHHCRKCG it is 1.32.
For the variant FWNFKQMWDSKKIALRQHHCRKCG, the protein stability index was found to be 1.66.
The figure for FWNFKQMWDSKKIILRQHHCRKCG is 1.48; for FWNFKQMWDSKKINLRQHHCRKCG it is 1.95.
With FWNFKQMWDSKKIWLRQHHCRKCG, the protein stability index was determined as 1.91.
Turning to FWNFKQMWDSKKIKLRQHHCRKCG, the protein stability index worked out at 2.14.
As to FWNFKQMWDSKKIDLRQHHCRKCG, the protein stability index worked out at 2.41.
Under FWNFKQMWDSKKITLRQHHCRKCG stands 2.4; under FWNFKQMWDSKKIHLRQHHCRKCG, 1.82.
The figure for FWNFKQMWDSKKILLRQHHCRKCG is 2; for FWNFKQMWDSKKIVLRQHHCRKCG it is 2.
The figure for FWNFKQMWDSKKIMLRQHHCRKCG is 1.89.
Turning to FWNFKQMWDSKKICLRQHHCRKCG, the protein stability index worked out at 2.45.
Under FWNFKQMWDSKKIGLRQLHCRKCG stands 1.76; under FWNFKQMWDSKKIGLRQPHCRKCG, 2.05; under FWNFKQMWDSKKIGLRQEHCRKCG, 2.25.
Under FWNFKQMWDSKKIGLRQNHCRKCG stands 3.5; under FWNFKQMWDSKKIGLRQKHCRKCG, 2.06; under FWNFKQMWDSKKIGLRQMHCRKCG, 1.38.
For the variant FWNFKQMWDSKKIGLRQFHCRKCG, the protein stability index amounted to 1.51.
The figure for FWNFKQMWDSKKIGLRQCHCRKCG is 2.94.
Under FWNFKQMWDSKKIGLRQDHCRKCG stands 1.79; under FWNFKQMWDSKKIGLRQIHCRKCG, 1.8; under FWNFKQMWDSKKIGLRQAHCRKCG, 1.73.
The figure for FWNFKQMWDSKKIGLRPHHCRKCG is 2.52; for FWNFKQMWDSKKIGLRGHHCRKCG it is 1.49; for FWNFKQMWDSKKIGLRMHHCRKCG it is 1.91.
Take FWNFKQMWDSKKIGLRAHHCRKCG: the protein stability index stood at 2.32.
Under FWNFKQMWDSKKIGLRSHHCRKCG stands 1.99.
The figure for FWNFKQMWDSKKIGLRFHHCRKCG is 1.35; for FWNFKQMWDSKKIGLRYHHCRKCG it is 2.12.
Under FWNFKQMWDSKKIGLRRHHCRKCG stands 2.
FWNFKQMWDSKKIGLRTHHCRKCG: the protein stability index was determined as 1.2.
The figure for FWNFKQMWDSKKIGLRNHHCRKCG is 1.35; for FWNFKQMWDSKKIGLRDHHCRKCG it is 1.9; for FWNFKQMWDSKKIGLRKHHCRKCG it is 1.38.
Under FWNFKQMWDSKKIGLRHHHCRKCG stands 2.18; under FWNFKQMWDSKKIGLRLHHCRKCG, 1.99.
Turning to FWNFKQMWDSKKIGLRVHHCRKCG, the protein stability index turned out to be 2.13.
The figure for FWNFKQMWDSKKIGLRWHHCRKCG is 1.82.
The figure for FWNFKQMWDSKKIGLRCHHCRKCG is 1.61; for FWNFKQMWDSKKIGLRIHHCRKCG it is 2.84; for FWNFKQMWDSKKIGLREHHCRKCG it is 1.53.
The figure for FWNFKQMWDSKKIGSRQHHCRKCG is 2.25; for FWNFKQMWDSKKIGGRQHHCRKCG it is 2.14; for FWNFKQMWDSKKIGYRQHHCRKCG it is 1.93.
Turning to FWNFKQMWDSKKIGRRQHHCRKCG, the protein stability index was determined as 2.61.
The figure for FWNFKQMWDSKKIGWRQHHCRKCG is 1.42; for FWNFKQMWDSKKIGDRQHHCRKCG it is 2.17; for FWNFKQMWDSKKIGARQHHCRKCG it is 2.01.
The figure for FWNFKQMWDSKKIGTRQHHCRKCG is 2.01; for FWNFKQMWDSKKIGHRQHHCRKCG it is 1.71; for FWNFKQMWDSKKIGQRQHHCRKCG it is 1.95.
Under FWNFKQMWDSKKIGERQHHCRKCG stands 2.48.
For the variant FWNFKQMWDSKKIGMRQHHCRKCG, the protein stability index came to 1.97.
Consider FWNFKQMWDSKKIGKRQHHCRKCG, for which the protein stability index amounted to 2.32.
Under FWNFKQMWDSKKIGIRQHHCRKCG stands 1.92.
The figure for FWNFKQMWDSKKIGVRQHHCRKCG is 2.34; for FWNFKQMWDSKKIGFRQHHCRKCG it is 1.81.
Consider FWNFKQMWDSKKIGNRQHHCRKCG, for which the protein stability index was found to be 2.11.
The figure for FWNFKQMWDSKKIGPRQHHCRKCG is 2.68; for FWNFKQMWDSKKIGLHQHHCRKCG it is 2.06.
The figure for FWNFKQMWDSKKIGLMQHHCRKCG is 1.94; for FWNFKQMWDSKKIGLVQHHCRKCG it is 2.1; for FWNFKQMWDSKKIGLQQHHCRKCG it is 2.66.
Under FWNFKQMWDSKKIGLAQHHCRKCG stands 1.97; under FWNFKQMWDSKKIGLFQHHCRKCG, 3.39.
As for FWNFKQMWDSKKIGLKQHHCRKCG, the protein stability index turned out to be 1.53.
Under FWNFKQMWDSKKIGLTQHHCRKCG stands 1.67; under FWNFKQMWDSKKIGLYQHHCRKCG, 1.85; under FWNFKQMWDSKKIGLDQHHCRKCG, 2.06.
On to FWNFKQMWDSKKIGLSQHHCRKCG, for which the protein stability index came out at 2.15.
Under FWNFKQMWDSKKIGLLQHHCRKCG stands 1.76; under FWNFKQMWDSKKIGLPQHHCRKCG, 3.42; under FWNFKQMWDSKKIGLCQHHCRKCG, 1.59.
Under FWNFKQMWDSKKIGLNQHHCRKCG stands 1.84; under FWNFKQMWDSKKIGLGQHHCRKCG, 1.54; under FWNFKQMWDSKKIGLEQHHCRKCG, 2.92.

Source of the values: the supplement of paper PMC10567573.
